The source of these data is patent publication US5422104.

In assay [1] the target is recombinant human p75-TNF-R-human IgGγ3 fusion protein (human) (UniProt P20333). The assay is described as follows: calculated from FIG. 7: competition with 125I-TNFα on plates coated with receptor-IgGγ3 fusions; reference: the same mutein on p55-TNF-R-IgGγ3.
The target in assay [2] is human p55-Tumor-Necrosis-Factor-Receptor on Hep-2 cells (human) (UniProt P19438).
Assay [3] has as its target human p75-Tumor-Necrosis-Factor-Receptor on U937 cells (human) (UniProt P20333). The assay is described as follows: competition assay on U937 cells.
For assay [4] the target is unchanged. The assay is described as follows: competition analysis on U937 cells.
In assay [5] the target is native human p75-TNF-R purified from HL60 cells (human) (UniProt P20333). The assay is described as follows: competition with 125I-TNFα for p75-TNF-R.
Assay [6] addresses human p75-Tumor-Necrosis-Factor-Receptor on U937 cells (human) (UniProt P20333). The assay is described as follows: competition analysis, U937 cells against Hep-2 cells.
The target is the same in assay [7]. The assay is described as follows: 125I-TNF-α competition, U937 cells, exp 1, mutant 1 × 10^-6 mol.
For assay [8] the target is unchanged. As to the kind of experiment: 125I-TNF-α competition, U937 cells, exp 1, mutant 1 × 10^-9 mol.
Assay [9] shares this target. The assay is described as follows: 125I-TNF-α competition, U937 cells, exp 1, mutant 2 × 10^-6 mol.
Assay [10] has the same target. The assay is described as follows: 125I-TNF-α competition, U937 cells, exp 1, mutant 5 × 10^-7 mol.
For assay [11] the target is unchanged. As to the kind of experiment: 125I-TNF-α competition, U937 cells, exp 1, mutant […] 10^-7 mol.
For assay [12] the target is unchanged. The assay is described as follows: 125I-TNF-α competition, U937 cells, exp 1, mutant […] 10^-8 mol.
Assay [13] has the same target. The assay is described as follows: 125I-TNF-α competition, U937 cells, exp 2, mutant 1 × 10^-6 mol.
For assay [14] the target is unchanged. As to the kind of experiment: 125I-TNF-α competition, U937 cells, exp 2, mutant 2 × 10^-6 mol.
Assay [15] shares this target. As to the kind of experiment: 125I-TNF-α competition, U937 cells, exp 2, mutant 3 × 10^-8 mol.
Assay [16] shares this target. The assay is described as follows: 125I-TNF-α competition, U937 cells, exp 2, mutant 4 × 10^-9 mol.
For assay [17] the target is unchanged. The assay is described as follows: 125I-TNF-α competition, U937 cells, exp 2, mutant 5 × 10^-7 mol.
For assay [18] the target is unchanged. As to the kind of experiment: 125I-TNF-α competition, U937 cells, exp 2, mutant 6 × 10^-8 mol.
Assay [19] shares this target. As to the kind of experiment: 125I-TNF-α competition, U937 cells, exp 2, mutant 8 × 10^-9 mol.
The target is the same in assay [20]. As to the kind of experiment: 125I-TNF-α competition, U937 cells, exp 2, mutant […] 10^-7 mol.
Assay [21] has the same target. As to the kind of experiment: 125I-TNF-α competition, U937 cells, exp 1, mutant 2 × 10^-9 mol.
Assay [22] shares this target. As to the kind of experiment: 125I-TNF-α competition, U937 cells, exp 1, mutant 4 × 10^-9 mol.
The target is the same in assay [23]. As to the kind of experiment: 125I-TNF-α competition, U937 cells, exp 1, mutant 8 × 10^-9 mol.
Assay [24] shares this target. As to the kind of experiment: 125I-TNF-α competition, U937 cells, exp 1, mutant 3.2 × 10^-8 mol.
Assay [25] has the same target. As to the kind of experiment: 125I-TNF-α competition, U937 cells, exp 1, mutant 6.4 × 10^-8 mol.
For assay [26] the target is unchanged. As to the kind of experiment: 125I-TNF-α competition, U937 cells, exp 2, mutant 1.2 × 10^-7 mol.
Assay [27] shares this target. As to the kind of experiment: 125I-TNF-α competition, U937 cells, exp 2, mutant 1.5 × 10^-8 mol.
For assay [28] the target is unchanged. As to the kind of experiment: 125I-TNF-α competition, U937 cells, exp 1, mutant 1.25 × 10^-7 mol.
Assay [29] deals with native human p75-TNF-R purified from HL60 cells (human) (UniProt P20333). As to the kind of experiment: competition with 125I-TNFα for p75-TNF-R, calculated from FIG. 1 (and FIG. 7).
Assay [30] shares this target. As to the kind of experiment: from the IC50 values of Table F, competition with 125I-TNFα; reference: the same mutein on p55-TNF-R.
The target in assay [31] is human p75-Tumor-Necrosis-Factor-Receptor on U937 cells (human) (UniProt P20333). As to the kind of experiment: 125I-TNF-α competition, U937 cells, exp 1, mutant 3 × 10^-8 mol.
The target is the same in assay [32]. The assay is described as follows: 125I-TNF-α competition, U937 cells, exp 1, mutant 6 × 10^-8 mol.
Assay [33] shares this target. The assay is described as follows: 125I-TNF-α competition, U937 cells, exp 1, mutant 1.5 × 10^-8 mol.
The target is the same in assay [34]. As to the kind of experiment: 125I-TNF-α competition, U937 cells, exp 2, mutant 1.10^-6 as printed.
The target is the same in assay [35]. As to the kind of experiment: 125I-TNF-α competition, U937 cells, exp 2, mutant 4 × 10^9 as printed.
For assay [36] the target is unchanged. The assay is described as follows: 125I-TNF-α (batch 2) competition, U937 cells, exp 3, mutant 1 × 10^-6 mol.
Assay [37] shares this target. As to the kind of experiment: 125I-TNF-α (batch 2) competition, U937 cells, exp 3, mutant 2 × 10^-6 mol.
Assay [38] shares this target. The assay is described as follows: 125I-TNF-α (batch 2) competition, U937 cells, exp 3, mutant 3 × 10^-8 mol.
Assay [39] has the same target. As to the kind of experiment: 125I-TNF-α (batch 2) competition, U937 cells, exp 3, mutant 4 × 10^-9 mol.
For assay [40] the target is unchanged. As to the kind of experiment: 125I-TNF-α (batch 2) competition, U937 cells, exp 3, mutant 5 × 10^-7 mol.
For assay [41] the target is unchanged. The assay is described as follows: 125I-TNF-α (batch 2) competition, U937 cells, exp 3, mutant 6 × 10^-8 mol.
Assay [42] shares this target. As to the kind of experiment: 125I-TNF-α (batch 2) competition, U937 cells, exp 3, mutant 8 × 10^-9 mol.
Assay [43] has the same target. The assay is described as follows: 125I-TNF-α (batch 2) competition, U937 cells, exp 3, mutant […] 10^-7 mol.
Assay [44] has the same target. The assay is described as follows: 125I-TNF-α (batch 2) competition, U937 cells, exp 3, mutant 1.5 × 10^-8 mol.
The target is the same in assay [45]. The assay is described as follows: 125I-TNF-α (batch 2) competition, U937 cells, exp 3, mutant 1.25 × 10^-7 mol.

Sequence of UniProt P19438 (P19438 30-455): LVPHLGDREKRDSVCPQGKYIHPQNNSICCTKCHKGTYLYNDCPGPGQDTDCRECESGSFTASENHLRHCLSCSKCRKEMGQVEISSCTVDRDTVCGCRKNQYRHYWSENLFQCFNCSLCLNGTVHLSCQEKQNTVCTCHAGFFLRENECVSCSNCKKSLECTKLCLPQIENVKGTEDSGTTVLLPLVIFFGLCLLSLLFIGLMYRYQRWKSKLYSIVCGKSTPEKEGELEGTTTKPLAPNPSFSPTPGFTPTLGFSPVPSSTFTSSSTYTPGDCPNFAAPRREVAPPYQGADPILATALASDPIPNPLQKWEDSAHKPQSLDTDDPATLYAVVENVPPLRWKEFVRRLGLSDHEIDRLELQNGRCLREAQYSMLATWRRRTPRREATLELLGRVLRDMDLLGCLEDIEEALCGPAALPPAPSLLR
Sequence of UniProt P20333 (P20333 other isoform, or with tags, fused parts or gaps): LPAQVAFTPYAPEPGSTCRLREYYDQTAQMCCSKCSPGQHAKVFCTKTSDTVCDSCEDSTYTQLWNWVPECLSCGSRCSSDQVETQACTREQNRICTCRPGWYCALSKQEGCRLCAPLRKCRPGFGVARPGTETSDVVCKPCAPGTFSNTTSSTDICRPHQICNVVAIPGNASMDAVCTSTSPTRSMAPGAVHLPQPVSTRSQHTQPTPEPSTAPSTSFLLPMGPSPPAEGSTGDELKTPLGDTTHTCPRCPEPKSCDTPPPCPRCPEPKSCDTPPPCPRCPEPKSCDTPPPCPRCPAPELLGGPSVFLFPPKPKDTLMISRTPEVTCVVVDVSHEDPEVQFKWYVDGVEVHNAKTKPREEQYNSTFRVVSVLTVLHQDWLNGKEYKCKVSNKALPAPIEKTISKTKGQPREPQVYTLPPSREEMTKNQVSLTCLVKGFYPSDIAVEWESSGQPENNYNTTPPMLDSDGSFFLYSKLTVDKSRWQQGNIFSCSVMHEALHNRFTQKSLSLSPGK

As for Gly^29 -TNFα (ligand), the selectivity factor S (IC50 p75-TNF-R against IC50 p55-TNF-R) in assay [1] is 80.

In the case of Ser^29 -TNFα (ligand), in [2], the specific activity (U/mg), cytotoxicity assay on Hep-2 cells is 9.3e+06 U/mg. Further, the specific activity on Hep-2 cells, relative value in percentage to TNF-α in assay [2] turned out to be 32%. Further, the increase in KD-value by a factor, against TNF-α in [3] is > 100 fold. The substance also showed an affinity, relative value in percentage to TNF-α in assay [4] of 0.49%. Moreover, the Decrease in Affinity (with respect to TNFα) in [5] was 250. Besides, the fold reduction of binding affinity against its affinity to p55-TNF-R in assay [6] amounted to 50 fold. This substance also gave a percent of its binding affinity to p55-TNF-R in assay [6] of 2%. Besides, the Mean dpm amounted to 632 dpm in assay [7]; 1870 dpm in assay [8]; 533 dpm in assay [9]; 949 dpm in assay [10]; 983 dpm in [11]; 1580 dpm in assay [12]. Moreover, the Mean dpm turned out to be 263 dpm in assay [13]; 238 dpm in [14]; 572 dpm in assay [15]; 635 dpm in assay [16]; 319 dpm in assay [17]; 489 dpm in assay [18]. The Mean dpm amounted to 603 dpm in assay [19]; 380 dpm in [20]; 1780 dpm in assay [21]; 1720 dpm in assay [22]; 1710 dpm in assay [23]; 1420 dpm in assay [24]. Also, the Mean dpm was 1320 dpm in assay [25], 413 dpm in [26], 641 dpm in assay [27] and 1200 dpm in assay [28]. In addition, the half-maximal inhibitory concentration (IC50) in assay [29] is 2.5 µg/mL. Moreover, the selectivity factor S (IC50 p75-TNF-R against IC50 p55-TNF-R) in [30] is 28.

Consider Ser^29 -Trp^32 -TNFα (ligand), for which the selectivity factor S (IC50 p75-TNF-R against IC50 p55-TNF-R) in assay [1] was 450.

In the case of Trp^32 -TNFα (ligand), in assay [2], the specific activity (U/mg), cytotoxicity assay on Hep-2 cells is 4.5e+07 U/mg. Moreover, the specific activity on Hep-2 cells, relative value in percentage to TNF-α in assay [2] worked out at 155%. Further, in [3], the increase in KD-value by a factor, against TNF-α is > 100 fold. This substance gave an affinity, relative value in percentage to TNF-α in assay [4] of 0.71%. For the same substance, the Decrease in Affinity (with respect to TNFα) in assay [5] amounted to 500. This substance had a fold reduction of binding affinity against its affinity to p55-TNF-R in assay [6] of 33 fold. The percent of its binding affinity to p55-TNF-R in [6] is 3%. The Mean dpm amounted to 777 dpm in assay [7]; 1920 dpm in assay [8]; 628 dpm in [9]; 953 dpm in assay [10]; 1030 dpm in assay [11]; 294 dpm in assay [14]. Besides, the Mean dpm in assay [15] was 585 dpm; in [17] it was 422 dpm; in assay [18], 546 dpm; in assay [19] it was 629 dpm; in assay [20], 479 dpm; in [21], 1700 dpm. The Mean dpm was 1380 dpm in assay [31]; 1660 dpm in [22]; 1330 dpm in assay [32]; 1580 dpm in assay [23]; 508 dpm in assay [26]; 636 dpm in assay [27]. In addition, the Mean dpm in [33] was 1490 dpm; in [28] it was 1170 dpm; in assay [34], 357 dpm; in assay [35], 653 dpm; in [36], 1190 dpm; in assay [37] it was 814 dpm. For the same substance, the Mean dpm in assay [38] amounted to 3280 dpm; in [39], 4760 dpm; in [40], 1470 dpm; in assay [41], 3030 dpm; in assay [42], 4040 dpm; in assay [43] it was 1980 dpm. Further, the Mean dpm was 3620 dpm in assay [44] and 2390 dpm in [45]. In addition, in [29], the IC50 is 5 µg/mL. Besides, the selectivity factor S (IC50 p75-TNF-R against IC50 p55-TNF-R) in [30] amounted to 294.

As to Tyr^29 -TNFα (ligand), the selectivity factor S (IC50 p75-TNF-R against IC50 p55-TNF-R) in assay [1] was 110.

For the substance Tyr^32 -TNFα (ligand), in assay [1], the selectivity factor S (IC50 p75-TNF-R against IC50 p55-TNF-R) was 90.

Broadly, the IC50 is the concentration at which inhibition is half-maximal.
